Laboratory results as given in patent US20240252592A1 (TIANJIN INSTITUTE OF PHARMACEUTICAL RESEARCH, published 2024).
One block for each binder: values may come before it. Numbered stars: 1 amine (or outer) side, 2 acyl side, 3 side chain; on linkers, the order of the positions; unused ones are H or OH. Square brackets hold non-standard residues; d marks the D form. Side chains are listed from the residue outwards. Ends that are not written are not given here. * marks the point of attachment. C18 diacid = O=C(O)CCCCCCCCCCCCCCCCC(=O)*; γGlu = O=C(O)[C@H](CCC(=O)[*:2])N[*:1]; Palmitoyl = CCCCCCCCCCCCCCCC(=O)*; AEEA = NCCOCCOCC(=O)O; Aib = CC(C)(N)C(=O)O

Legend:
human GLP-1 receptor = human GLP-1 receptor (human, UniProt P43220 24-463); test: cell-based or functional assay
GC receptor = test: cell-based or functional assay

EC50 of GLP-1 receptor mediated cAMP production (human GLP-1 receptor): 0.194 nM
EC50 of GC receptor mediated cAMP production (GC receptor): 0.329 nM
B1: Compound 23 (peptide)
peptide: H[Aib]QGTFTSDK([AEEA-AEEA-γGlu-C18 diacid])SKYLDEKRAKEFIEWLEAGGPSSG-NH2
modifications: N-terminus assumed
SMILES: CC[C@H](C)[C@H](NC(=O)[C@H](Cc1ccccc1)NC(=O)[C@H](CCC(=O)O)NC(=O)[C@H](CCCCN)NC(=O)[C@H](C)NC(=O)[C@H](CCCNC(=N)N)NC(=O)[C@H](CCCCN)NC(=O)[C@H](CCC(=O)O)NC(=O)[C@H](CC(=O)O)NC(=O)[C@H](CC(C)C)NC(=O)[C@H](Cc1ccc(O)cc1)NC(=O)[C@H](CCCCN)NC(=O)[C@H](CO)NC(=O)[C@H](CCCCNC(=O)COCCOCCNC(=O)COCCOCCNC(=O)CC[C@H](NC(=O)CCCCCCCCCCCCCCCCC(=O)O)C(=O)O)NC(=O)[C@H](CC(=O)O)NC(=O)[C@H](CO)NC(=O)[C@@H](NC(=O)[C@H](Cc1ccccc1)NC(=O)[C@@H](NC(=O)CNC(=O)[C@H](CCC(N)=O)NC(=O)C(C)(C)NC(=O)[C@@H](N)Cc1c[nH]cn1)[C@@H](C)O)[C@@H](C)O)C(=O)N[C@@H](CCC(=O)O)C(=O)N[C@@H](Cc1c[nH]c2ccccc12)C(=O)N[C@@H](CC(C)C)C(=O)N[C@@H](CCC(=O)O)C(=O)N[C@@H](C)C(=O)NCC(=O)NCC(=O)N1CCC[C@H]1C(=O)N[C@@H](CO)C(=O)N[C@@H](CO)C(=O)NCC(N)=O

EC50 of GLP-1 receptor mediated cAMP production (human GLP-1 receptor): 0.211 nM
EC50 of GC receptor mediated cAMP production (GC receptor): 0.278 nM
B2: Compound 25 (peptide)
peptide: HXQGTFTSDKSKYLEERAAKEFVEWLLEAGGPSSG
HELM: PEPTIDE1{H.[Aib].Q.G.T.F.T.S.D.K.S.K.Y.L.E.E.R.A.A.K.E.F.V.E.W.L.L.E.A.G.G.P.S.S.G.[am]}|PEPTIDE2{[CCCCCCCCCCCCCCCC(=O)[*:2]].[gGlu].[gGlu]}$PEPTIDE1,PEPTIDE2,10:R3-3:R2$$$V2.0; N-terminus assumed
SMILES: CCCCCCCCCCCCCCCC(=O)N[C@@H](CCC(=O)N[C@@H](CCC(=O)NCCCC[C@H](NC(=O)[C@H](CC(=O)O)NC(=O)[C@H](CO)NC(=O)[C@@H](NC(=O)[C@H](Cc1ccccc1)NC(=O)[C@@H](NC(=O)CNC(=O)[C@H](CCC(N)=O)NC(=O)C(C)(C)NC(=O)[C@@H](N)Cc1c[nH]cn1)[C@@H](C)O)[C@@H](C)O)C(=O)N[C@@H](CO)C(=O)N[C@@H](CCCCN)C(=O)N[C@@H](Cc1ccc(O)cc1)C(=O)N[C@@H](CC(C)C)C(=O)N[C@@H](CCC(=O)O)C(=O)N[C@@H](CCC(=O)O)C(=O)N[C@@H](CCCNC(=N)N)C(=O)N[C@@H](C)C(=O)N[C@@H](C)C(=O)N[C@@H](CCCCN)C(=O)N[C@@H](CCC(=O)O)C(=O)N[C@@H](Cc1ccccc1)C(=O)N[C@H](C(=O)N[C@@H](CCC(=O)O)C(=O)N[C@@H](Cc1c[nH]c2ccccc12)C(=O)N[C@@H](CC(C)C)C(=O)N[C@@H](CC(C)C)C(=O)N[C@@H](CCC(=O)O)C(=O)N[C@@H](C)C(=O)NCC(=O)NCC(=O)N1CCC[C@H]1C(=O)N[C@@H](CO)C(=O)N[C@@H](CO)C(=O)NCC(N)=O)C(C)C)C(=O)O)C(=O)O

EC50 of GLP-1 receptor mediated cAMP production (human GLP-1 receptor): 0.027 nM
EC50 of GC receptor mediated cAMP production (GC receptor): 0.018 nM
B3: Compound 22 (peptide)
peptide: H[Aib]QGTFTSDK([AEEA-AEEA-γGlu-C18 diacid])SKYLEERAAKEFVAWLEAGGPSSG-NH2
modifications: not fully specified; printed as HAibQGTFTSDK**SKYLEERAAKEFVAWLEAGGPSSG-Amid

The next lines start with the binder.

B4: Compound 21 (peptide)
peptide: H[Aib]QGTFTSDK([γGlu-γGlu-Palmitoyl])SKYLEERAAKEFIAWLEGGPSSG-NH2
modifications: not fully specified; printed as HAibQGTFTSDK*SKYLEERAAKEFIAWLEGGPSSG-Amid
EC50 of GLP-1 receptor mediated cAMP production (human GLP-1 receptor): 0.83 nM
EC50 of GC receptor mediated cAMP production (GC receptor): 0.175 nM

B5: Compound 15 (peptide)
peptide: HXQGTFTSDYSKYLXERAAKEFVXWLEAGGPSSG
HELM: PEPTIDE1{H.[Aib].Q.G.T.F.T.S.D.Y.S.K.Y.L.D.E.R.A.A.K.E.F.V.A.W.L.E.A.G.G.P.S.S.G.[am]}|PEPTIDE2{[CCCCCCCCCCCCCCCC(=O)[*:2]].[gGlu].[gGlu]}$PEPTIDE1,PEPTIDE2,20:R3-3:R2$$$V2.0; N-terminus assumed
SMILES: CCCCCCCCCCCCCCCC(=O)N[C@@H](CCC(=O)N[C@@H](CCC(=O)NCCCC[C@H](NC(=O)[C@H](C)NC(=O)[C@H](C)NC(=O)[C@H](CCCNC(=N)N)NC(=O)[C@H](CCC(=O)O)NC(=O)[C@H](CC(=O)O)NC(=O)[C@H](CC(C)C)NC(=O)[C@H](Cc1ccc(O)cc1)NC(=O)[C@H](CCCCN)NC(=O)[C@H](CO)NC(=O)[C@H](Cc1ccc(O)cc1)NC(=O)[C@H](CC(=O)O)NC(=O)[C@H](CO)NC(=O)[C@@H](NC(=O)[C@H](Cc1ccccc1)NC(=O)[C@@H](NC(=O)CNC(=O)[C@H](CCC(N)=O)NC(=O)C(C)(C)NC(=O)[C@@H](N)Cc1c[nH]cn1)[C@@H](C)O)[C@@H](C)O)C(=O)N[C@@H](CCC(=O)O)C(=O)N[C@@H](Cc1ccccc1)C(=O)N[C@H](C(=O)N[C@@H](C)C(=O)N[C@@H](Cc1c[nH]c2ccccc12)C(=O)N[C@@H](CC(C)C)C(=O)N[C@@H](CCC(=O)O)C(=O)N[C@@H](C)C(=O)NCC(=O)NCC(=O)N1CCC[C@H]1C(=O)N[C@@H](CO)C(=O)N[C@@H](CO)C(=O)NCC(N)=O)C(C)C)C(=O)O)C(=O)O
EC50 of GLP-1 receptor mediated cAMP production (human GLP-1 receptor): 0.58 nM
EC50 of GC receptor mediated cAMP production (GC receptor): 0.148 nM

B6: Compound 17 (peptide)
peptide: H[Aib]QGTFTSDK([AEEA-AEEA-γGlu-C18 diacid])SKYLEERAAKEFVAWLKEGGPSSG-NH2
modifications: N-terminus assumed
SMILES: CC(C)C[C@H](NC(=O)[C@H](Cc1c[nH]c2ccccc12)NC(=O)[C@H](C)NC(=O)[C@@H](NC(=O)[C@H](Cc1ccccc1)NC(=O)[C@H](CCC(=O)O)NC(=O)[C@H](CCCCN)NC(=O)[C@H](C)NC(=O)[C@H](C)NC(=O)[C@H](CCCNC(=N)N)NC(=O)[C@H](CCC(=O)O)NC(=O)[C@H](CCC(=O)O)NC(=O)[C@H](CC(C)C)NC(=O)[C@H](Cc1ccc(O)cc1)NC(=O)[C@H](CCCCN)NC(=O)[C@H](CO)NC(=O)[C@H](CCCCNC(=O)COCCOCCNC(=O)COCCOCCNC(=O)CC[C@H](NC(=O)CCCCCCCCCCCCCCCCC(=O)O)C(=O)O)NC(=O)[C@H](CC(=O)O)NC(=O)[C@H](CO)NC(=O)[C@@H](NC(=O)[C@H](Cc1ccccc1)NC(=O)[C@@H](NC(=O)CNC(=O)[C@H](CCC(N)=O)NC(=O)C(C)(C)NC(=O)[C@@H](N)Cc1c[nH]cn1)[C@@H](C)O)[C@@H](C)O)C(C)C)C(=O)N[C@@H](CCCCN)C(=O)N[C@@H](CCC(=O)O)C(=O)NCC(=O)NCC(=O)N1CCC[C@H]1C(=O)N[C@@H](CO)C(=O)N[C@@H](CO)C(=O)NCC(N)=O
EC50 of GLP-1 receptor mediated cAMP production (human GLP-1 receptor): 2.21 nM
EC50 of GC receptor mediated cAMP production (GC receptor): 0.486 nM

B7: Compound 19 (peptide)
peptide: HXQGTFTSDKSKYLESERAKEFVEWLVKEGGPSSG
HELM: PEPTIDE1{H.[Aib].Q.G.T.F.T.S.D.K.S.K.Y.L.E.S.E.R.A.K.E.F.V.E.W.L.V.K.E.G.G.P.S.S.G.[am]}|PEPTIDE2{[CCCCCCCCCCCCCCCC(=O)[*:2]].[gGlu].[gGlu]}$PEPTIDE1,PEPTIDE2,10:R3-3:R2$$$V2.0; N-terminus assumed
SMILES: CCCCCCCCCCCCCCCC(=O)N[C@@H](CCC(=O)N[C@@H](CCC(=O)NCCCC[C@H](NC(=O)[C@H](CC(=O)O)NC(=O)[C@H](CO)NC(=O)[C@@H](NC(=O)[C@H](Cc1ccccc1)NC(=O)[C@@H](NC(=O)CNC(=O)[C@H](CCC(N)=O)NC(=O)C(C)(C)NC(=O)[C@@H](N)Cc1c[nH]cn1)[C@@H](C)O)[C@@H](C)O)C(=O)N[C@@H](CO)C(=O)N[C@@H](CCCCN)C(=O)N[C@@H](Cc1ccc(O)cc1)C(=O)N[C@@H](CC(C)C)C(=O)N[C@@H](CCC(=O)O)C(=O)N[C@@H](CO)C(=O)N[C@@H](CCC(=O)O)C(=O)N[C@@H](CCCNC(=N)N)C(=O)N[C@@H](C)C(=O)N[C@@H](CCCCN)C(=O)N[C@@H](CCC(=O)O)C(=O)N[C@@H](Cc1ccccc1)C(=O)N[C@H](C(=O)N[C@@H](CCC(=O)O)C(=O)N[C@@H](Cc1c[nH]c2ccccc12)C(=O)N[C@@H](CC(C)C)C(=O)N[C@H](C(=O)N[C@@H](CCCCN)C(=O)N[C@@H](CCC(=O)O)C(=O)NCC(=O)NCC(=O)N1CCC[C@H]1C(=O)N[C@@H](CO)C(=O)N[C@@H](CO)C(=O)NCC(N)=O)C(C)C)C(C)C)C(=O)O)C(=O)O
EC50 of GLP-1 receptor mediated cAMP production (human GLP-1 receptor): 3.53 nM
EC50 of GC receptor mediated cAMP production (GC receptor): 6.25 nM

B8: Compound 16 (peptide)
peptide: HXQGTFTSDKSKYLEERAAKEFIAWLLEGGPSSG
HELM: PEPTIDE1{H.[Aib].Q.G.T.F.T.S.D.K.S.K.Y.L.E.E.R.A.A.K.E.F.I.A.W.L.L.E.G.G.P.S.S.G.[am]}|PEPTIDE2{[CCCCCCCCCCCCCCCC(=O)[*:2]].[gGlu].[gGlu]}$PEPTIDE1,PEPTIDE2,10:R3-3:R2$$$V2.0; N-terminus assumed
SMILES: CCCCCCCCCCCCCCCC(=O)N[C@@H](CCC(=O)N[C@@H](CCC(=O)NCCCC[C@H](NC(=O)[C@H](CC(=O)O)NC(=O)[C@H](CO)NC(=O)[C@@H](NC(=O)[C@H](Cc1ccccc1)NC(=O)[C@@H](NC(=O)CNC(=O)[C@H](CCC(N)=O)NC(=O)C(C)(C)NC(=O)[C@@H](N)Cc1c[nH]cn1)[C@@H](C)O)[C@@H](C)O)C(=O)N[C@@H](CO)C(=O)N[C@@H](CCCCN)C(=O)N[C@@H](Cc1ccc(O)cc1)C(=O)N[C@@H](CC(C)C)C(=O)N[C@@H](CCC(=O)O)C(=O)N[C@@H](CCC(=O)O)C(=O)N[C@@H](CCCNC(=N)N)C(=O)N[C@@H](C)C(=O)N[C@@H](C)C(=O)N[C@@H](CCCCN)C(=O)N[C@@H](CCC(=O)O)C(=O)N[C@@H](Cc1ccccc1)C(=O)N[C@H](C(=O)N[C@@H](C)C(=O)N[C@@H](Cc1c[nH]c2ccccc12)C(=O)N[C@@H](CC(C)C)C(=O)N[C@@H](CC(C)C)C(=O)N[C@@H](CCC(=O)O)C(=O)NCC(=O)NCC(=O)N1CCC[C@H]1C(=O)N[C@@H](CO)C(=O)N[C@@H](CO)C(=O)NCC(N)=O)[C@@H](C)CC)C(=O)O)C(=O)O
EC50 of GLP-1 receptor mediated cAMP production (human GLP-1 receptor): 0.405 nM
EC50 of GC receptor mediated cAMP production (GC receptor): 0.092 nM
